{"source": "patent US20250042994A1", "about": "(HAINAN SIMCERE ZAIMING PHARMACEUTICAL, published 2025)", "binders": {"B1": {"name": "F5.8.6 (antibody, human IgG1, V domains shown)", "VH": "QVQLHQPGAELVMPGASVTLSCKASGYTFTSYWMHWVKQRPGQGLEWIGEIDPSDSYTTYDQKFKGKATLTVDKFSSTAYMQFSSLTSEDSAVYYCARLTGNHLDYWGQGTTLTVSS", "VL": "DIVMTQSHKFMSSSVGDRVSITCKASQDVSPAVAWYQQKPGQSPKLLIYSTSYRNTGVPDRFTGSGSGTDFTFTISSVQAEDLAVYYCQQHYSIPLTFGAGTKLELK", "notes": "human-murine chimeric antibody, human IgG1 constant"}, "B2": {"name": "F4.48.12 (antibody, human IgG1, V domains shown)", "VH": "QMQLKESGPGLVAPSQSLSITCTVSGFSLTDYGVSWIRQPPGKGLEWLGVIWGSGSTFYNSALTSRLSISKDNSKSQVFLKMNSLQTADTAMYFCAKHHYYGGSFAMDYWGQGTSVTVSS", "VL": "DIQMTQASSSLSASLGDRVTISCKTSQDISNYLNWYQQKPDGTFKLLIHYTSRLHSGVPSRFSGSGSGSDYSLTISNLEREDIATYFCQQGNSLPYTFGGGTKLEMK", "notes": "as for B1"}, "B3": {"name": "F4.58.6 (antibody, human IgG1, V domains shown)", "VH": "QVQLQQPGAELVKPGASVKLSCKASGYTFTSYWMHWVKQRPGQGLEWIGEIDPSDSYSNYNQKFKGKATLTVDKSSSTAYMQLSSLTSEDSAVYYCARSNYGSSYGYFDVWGAGTTVTVSS", "VL": "QIVLTQSPAIMSASPGEKVTMTCSVSSSLSYMHWYQQKPGTSPKRWIYDTSKLASGVPARFSGSGSGTSYSLTISSMEAEDAATYYCHQRSSYPTFGGGTKLEIK", "notes": "as for B1"}, "B4": {"name": "F5.3.6 (antibody, human IgG1, V domains shown)", "VH": "DVQLQESGPGLVKPSQSQSLTCSVTGYSITSGYYWNWIRQFPGNKLEWMGYISYDGSNNYNPSLKNRISITRDTSKNQFFLKLNSVTTEDTVTYYCARAPLTGDRYWYFDVWGTGTTVTVSS", "VL": "DIVLTQSPASLAVSLGQRATISCRASQSVSTSSYSYMHWYQQKPGQTPKLLIKYASNLKSGVPARFSGSGSGTDFTLNIHPVEEEDTATYYCQHSWEIPPTFGGGTKLEIK", "notes": "as for B1"}, "B5": {"name": "F5.2.9 (antibody, human IgG1, V domains shown)", "VH": "QVTLKESGPGILQPSQTLSLTCSFSGFSLSTFGLGVGWVRQPSGKGLEWLAHIWWDDDKYYNPALKSRVTVSKETSKNQVFFKIANVDTADSATYYCARLSRGLRRDVVYAMDHWGQGTSVTVSS", "VL": "DIQMTQTTSSLSASLGDRVTISCRASQDISNYLNWYQQKPDGSVKLLISYVSRLQSGVPSRFRGSGSGTDYSLTISNLDQEDIATYFCQQGIAFPYTFGGGTKLDIK", "notes": "as for B1"}, "B6": {"name": "F4.49.11 (antibody, human IgG1, V domains shown)", "VH": "DVQLRASGPGLVKPSQSLSLTCSVTGYSITSGYYWNWIRQFPGNKLEWMGCISYDGTNNYNPSLKNRISFTRDTSKNQFFLNLNSVTTEDSATYYCARRVYYRYDGVVDYWGQGTSVTVSS", "VL": "ENVLTQSPAIMSASPGEKVTMTCSASSSVSYIHWYQQKSSTAPKLWIYDTSKLASGVPGRFSGSRSRNSYSLTISSMEAEDVATYYCFQGSGYPLTFGSGTKLEIK", "notes": "as for B1"}, "B7": {"name": "F4.41.1 (antibody, human IgG1, V domains shown)", "VH": "QVQLQQSGAELVRPGTSVKVSCKASGYAFTNYLIEWVKQRPGQGLEWIGVINPGSGDTLYNEKFKGKATLTADKSSTTAYMQLSGLTSDVSAIYFCARSPPITTIVADYFDYWGQGTTLTVSS", "VL": "DIQMTQTTSSLSASLGDRVTISCRASQDISNYLNWYQQKPDGTVKLLIYYTSRLHSGVPSRFSGSGSGADYSLTISNLEQEDIATYFCQQGKTLPYTFGGGTKLEIK", "notes": "as for B1"}, "B8": {"name": "F4.82.11 (antibody, human IgG1, V domains shown)", "VH": "QVTLKESGPGILQASQTLSLTCSFSGFSLSTFGIGVGWVRQPSGKGLEWLAHIWWNDNKFFNTTLKNRLTLSKDPSNNQVFLKIASVDTADTATYYCARSRSALITTGLYAMDYWGQGTSVTVSS", "VL": "B7 VL with T8P, A25S, L33V, L46V, Y49N, A69T, T85S, K92F", "notes": "as for B1"}, "B9": {"name": "F4.78.1 (antibody, human IgG1, V domains shown)", "VH": "QVQIQQSGAELARPGASVKLSCKASGYTFTNYWMQWIKQRPGQGLEWIGAIYPGDGDTRYTQKFKGKATLTADKSSSTAYMQLSSLASEDSAVYYCAREEVWSPYGMDYWGQGTSVTVSS", "VL": "QIVLTQSPAIMSASPGEKVTITCSASSSVSYMGWFQQKPGTSPKLWIYSTSNLASGVPARFSGSGSGTSYSLTISRMEAEDAATYYCQQRSIYPLTFGAGTKLELK", "notes": "as for B1"}, "B10": {"name": "F3.133.14 (antibody, human IgG1, V domains shown)", "VH": "QVQLQQPGAELVMPGASVKLSCKASGYTFTNYWMHWVKQRPGQGLEWIGEIDPSDYYANYNQKFKGKATLTVDKSSSTAYMQLSSLTSEDSAVYYCARSHYYANSYNYWGQGTTLTVSS", "VL": "EIELTQSPTTMAASPGEKITITCSASSSISSDYLHWYQQKPGFSPKLLIYRTSNLASGLPARFSGSGSGTSYSLTIGTMEAEDVATYYCQQGSSVPRMLTFGAGTKLELK", "notes": "as for B1"}, "B11": {"name": "F5.7.1 (antibody, human IgG1, V domains shown)", "VH": "QVTLKESGPGILQPSQTLSLTCSFSGFSLTTFGMGVGWIRQPSGKGLEWLTHIWWDDDKYYNPALKSRLTISKDTSKNQVFLRIANVDTADTATYYCARVITTGVPYFDYWGQGTTLTVSS", "VL": "ENVLTQSPAIMSASPGEKVTMTCRASSSVSSSYLYWYQQKSGASPKLWISSTSNLASGVPARFSGSGSGTSYSLTINSVEAEDAATYYCQQYSGYPWTFGGGTKLEIK", "notes": "as for B1"}, "B12": {"name": "F4.37.6 (antibody, human IgG1, V domains shown)", "VH": "QVQLQQSGAELARPGASVKLSCKASGYTFTSFWMQWLKQRPGQGLEWIGTIYPGDGDTRYTQKFKGKATLTADKSSNTAYMQLSSLASEDSAVYYCARGALSNYGGFAYWGQGTLVTVSA", "VL": "NIVLTQSPASLAVSLGQRATISCRASESVDSYGHSFMHWYQQKPGQPPKLLIYLASNLESGVPARFSGSGSRTDFTLTIDPVEADDAATYYCQQNNEDPWTFGGGTKLEIK", "notes": "as for B1"}}, "note": "Changes are numbered by the printed parent chain.", "data": [{"target": "T1, human CD19 exon1-3-His tag protein (human, UniProt P15391 20-186, limits assumed)", "T1 construct": "membrane-distal part of the extracellular region, made in HEK293E cells; not shown: His tag", "T1 sequence (looked up)": "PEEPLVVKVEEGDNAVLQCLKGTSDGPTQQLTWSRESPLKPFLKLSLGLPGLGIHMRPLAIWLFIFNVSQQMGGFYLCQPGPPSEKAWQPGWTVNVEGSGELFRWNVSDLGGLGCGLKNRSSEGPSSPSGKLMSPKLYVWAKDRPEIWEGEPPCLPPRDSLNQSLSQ", "experiment": "ELISA on coated human CD19 exon 1-3-His", "values": [{"binder": "B1", "binding result": "no binding (tested: 100 nM)"}, {"binder": "B2", "binding result": "no binding (tested: 100 nM)"}, {"binder": "B3", "binding result": "no binding (tested: 100 nM)"}, {"binder": "B4", "binding result": "no binding (tested: 100 nM)"}, {"binder": "B5", "binding result": "no binding (tested: 100 nM)"}, {"binder": "B6", "binding result": "no binding (tested: 100 nM)"}, {"binder": "B7", "binding result": "no binding (tested: 100 nM)"}, {"binder": "B8", "binding result": "no binding (tested: 100 nM)"}, {"binder": "B9", "binding result": "no binding (tested: 100 nM)"}, {"binder": "B10", "binding result": "no binding (tested: 100 nM)"}, {"binder": "B11", "binding result": "no binding (tested: 100 nM)"}, {"binder": "B12", "binding result": "no binding (tested: 100 nM)"}]}, {"target": "T2, Human CD19-his protein (human, UniProt P15391 20-291)", "T2 construct": "bought protein; also called recombinant human CD19-His; CD19 full-length protein; not shown: His tag", "T2 sequence (looked up)": "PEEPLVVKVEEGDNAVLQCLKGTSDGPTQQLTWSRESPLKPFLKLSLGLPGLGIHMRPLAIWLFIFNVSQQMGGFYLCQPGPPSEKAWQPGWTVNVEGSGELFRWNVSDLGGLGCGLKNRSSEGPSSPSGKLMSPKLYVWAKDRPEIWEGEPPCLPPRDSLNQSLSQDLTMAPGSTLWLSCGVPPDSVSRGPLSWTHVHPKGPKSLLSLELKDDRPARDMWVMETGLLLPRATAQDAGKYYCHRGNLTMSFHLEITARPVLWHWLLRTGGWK", "experiment": "SPR Biacore, Ab captured on Protein A, CD19-His analyte", "method_in_brief": "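Apparent KD came from a Langmuir 1:1 fit of double-referenced sensorgrams. Recombinant human CD19-His analyte (top 200 nM, 1:1 serial dilution, 5 concentrations) flowed over Protein A-captured antibody for 240 s at 30 μl/min, then buffer for up to 600 s. Running buffer HBS-EP+ at 25 °C; regeneration with 10 mM glycine pH 1.5.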", "units": {"Kd": "nM", "koff": "s⁻¹", "kon": "M⁻¹ s⁻¹"}, "values": [{"binder": "B1", "Kd": 5.98, "koff": 0.00108, "kon": 181000}, {"binder": "B2", "Kd": 0.487, "koff": 0.000129, "kon": 264000}, {"binder": "B3", "Kd": 13.9, "koff": 0.002, "kon": 143000}, {"binder": "B4", "Kd": 3.49, "koff": 0.000122, "kon": 35100}, {"binder": "B5", "Kd": 15.7, "koff": 0.000402, "kon": 25700}, {"binder": "B6", "Kd": 17.6, "koff": 0.00128, "kon": 73000}, {"binder": "B7", "Kd": 13.4, "koff": 0.00239, "kon": 179000}, {"binder": "B8", "Kd": 22.7, "koff": 0.000774, "kon": 34100}, {"binder": "B9", "Kd": 0.926, "koff": 0.00017, "kon": 184000}, {"binder": "B10", "Kd": 0.974, "koff": "8.84e-05", "kon": 90800}, {"binder": "B11", "Kd": 1.18, "koff": 0.000225, "kon": 192000}, {"binder": "B12", "Kd": 9.11, "koff": 0.00327, "kon": 359000}]}]}
